Measured values from FireProtDB (doi:10.1529/biophysj.106.099531).
Where “and” joins values, the source holds several entries; their conditions need not be identical. Equal entries are not always repeated.

Conditions: Pseudomonas aeruginosa (strain ATCC 15692 / DSM 22644 / CIP 104116 / JCM 14847 / LMG 12228 / 1C / PRS 101 / PAO1), pH 7.5, GdnHCl, Fluorescence, Tris 1 mM, NaCl 1.93 M, reversible: Yes, whole UniProt chain shown

B1: Azurin wild type, P00282 (protein)
chain: MLRKLAAVSLLSLLSAPLLAAECSVDIQGNDQMQFNTNAITVDKSCKQFTVNLSHPGNLPKNVMGHNWVLSTAADMQGVVTDGMASGLDKDYLKPDDSRVIAHTKLIGSGEKDSVTFDVSKLKEGEQYMFFCTFPGHSALMKGTLTLK
With B1 the denaturant m value (20 °C) was 5.53 kcal/mol/M, the “denaturant midpoint (higher = more stable)” value (shortened to “denaturant midpoint”) (20 °C) was 1.74 M and the unfolding free energy (20 °C) was 9.63 kcal/mol. For the same protein, the denaturant m value (-8 °C) was 3.63 kcal/mol/M and 6.66 kcal/mol/M, the “denaturant midpoint” value (-8 °C) was 1.79 M and 1.58 M and the unfolding free energy (-8 °C) was 6.89 kcal/mol and 10.5 kcal/mol. For the same protein, the denaturant m value (-10 °C) was 3.77 kcal/mol/M, the “denaturant midpoint” value (-10 °C) was 1.73 M and the unfolding free energy (-10 °C) was 6.83 kcal/mol. For the same protein, the denaturant m value (-12 °C) was 3.85 kcal/mol/M and 6.98 kcal/mol/M, the “denaturant midpoint” value (-12 °C) was 1.7 M and 1.5 M and the unfolding free energy (-12 °C) was 6.77 kcal/mol and 10.5 kcal/mol.
